Test results as given in patent US20250163168A1, “NOVEL ANTIBODIES AND ANTIBODY CONJUGATES FOR THE TREATMENT OF METABOLIC DISORDERS” (PFIZER INC., priority 2023, published 2025).

Experiments:
[1] = system: diet induced obese (DIO) hGIPR mice; test: Body weight gain prevention and food intake in DIO hGIPR mice on high fat diet; format: in vivo, mouse; details: 1 mg/kg s.c. twice a week, 60% high fat diet, compared to IgG control (FIG. 6)
Description: Male hGIPR mice between 18-21 weeks of age were utilized which had been on 60% high fat diet (D12492, Research Diets) for 14 weeks prior to the start of the study and were singly housed, maintained on a 12-hour light/12-hour dark cycle, and received food and water ad libitum. Prior to the start of the study, mice were randomized into each group based on body weight. […] Mice were continued on 60% high fat diet for the duration of the study. In FIG. 2, number of animals per group=10; Data are presented as the mean and error bars are SEM.
To determine statistical significance for the body weight endpoint, a generalized least squares linear model with appropriate fixed effects and correlation and variance structure are used for BW outcomes. All residuals were evaluated for meeting the normality assumption with the Shapiro-Wilks Test and Q-Q Plots and the sphericity and homoscedasticity assumption by the residual plots and Bartlett's test. […]
Male hGIPR mice between 18-21 weeks of age were utilized which had been on 60% high fat diet (D12492, Research Diets) for 14 weeks prior to the start of the study and were singly housed, maintained on a 12 hour light/12 hour dark cycle, and received food and water ad libitum. […] Percent change in body weight at each time point was calculated based on difference from pre-dose weight, and 24 hour food intake was measured during week 3. […]

[2] = molecular target: T1, mouse GIPR/GIP (Mus musculus, UniProt Q0P543); test: Cross-species activity to mouse GIPR/GIP
T1 sequence (Q0P543 19-460): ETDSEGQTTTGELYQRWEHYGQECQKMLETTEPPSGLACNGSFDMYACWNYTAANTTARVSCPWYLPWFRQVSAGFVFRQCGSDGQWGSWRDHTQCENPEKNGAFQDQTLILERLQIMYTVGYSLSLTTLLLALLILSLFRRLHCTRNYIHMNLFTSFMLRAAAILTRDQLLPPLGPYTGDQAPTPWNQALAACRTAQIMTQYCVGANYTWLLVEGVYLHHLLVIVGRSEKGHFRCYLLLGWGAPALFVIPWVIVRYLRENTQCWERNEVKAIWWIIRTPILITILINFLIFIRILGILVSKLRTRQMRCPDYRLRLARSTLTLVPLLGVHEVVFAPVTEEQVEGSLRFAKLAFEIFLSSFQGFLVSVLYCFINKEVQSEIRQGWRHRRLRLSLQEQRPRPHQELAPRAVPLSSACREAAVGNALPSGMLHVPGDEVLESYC

[3] = molecular target: T2, human GIPR (hGIPR) (Homo sapiens, UniProt P48546); test: Functional in vitro GIPR antagonist potency assay (human GIPR-CHO cAMP, HTRF); format: cell-based; details: CHO-K1 cells stably expressing hGIPR, 1.5 nM hGIP
T2 sequence (P48546 22-466): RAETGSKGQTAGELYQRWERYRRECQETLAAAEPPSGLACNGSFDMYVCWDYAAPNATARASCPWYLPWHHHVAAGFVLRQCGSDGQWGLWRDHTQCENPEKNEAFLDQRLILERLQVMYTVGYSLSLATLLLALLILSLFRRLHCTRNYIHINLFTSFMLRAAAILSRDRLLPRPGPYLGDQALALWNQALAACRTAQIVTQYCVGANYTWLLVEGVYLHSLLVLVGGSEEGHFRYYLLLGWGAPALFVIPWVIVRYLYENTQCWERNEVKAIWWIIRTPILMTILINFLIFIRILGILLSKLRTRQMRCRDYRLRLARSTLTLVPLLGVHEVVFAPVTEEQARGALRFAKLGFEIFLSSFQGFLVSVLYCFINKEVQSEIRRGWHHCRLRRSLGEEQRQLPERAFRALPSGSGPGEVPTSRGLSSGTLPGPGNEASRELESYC
Description: Following agonist activation, hGIPR associates with the G-protein complex causing the Gas subunit to exchange bound Guanosine diphosphate (GDP) for guanosine triphosphate (GTP), followed by dissociation of the Gas-GTP complex. The activated Gas subunit can couple to downstream effectors to regulate the levels of second messengers or cAMP within the cell. Thereby, determination of intracellular cAMP levels allows for pharmacological characterization. Intracellular cAMP levels were quantified using a homogenous assay utilizing the Homogeneous Time Resolved Fluorescence (HTRF) technology from Perkin Elmer. The method was a competitive immunoassay between native cAMP produced by the cells and cAMP labelled with the acceptor dye, d2. The two entities competed for binding to a monoclonal anti-cAMP antibody labeled with cryptate. […] G2269) in 1× cAMP assay buffer was added to the assay plate (5 μL/well) at 4.5 nM (final concentration of 1.5 nM) and incubated for another 30 minutes at 37° C., after which intracellular cAMP levels were quantified with Cisbio cAMP-GS Dynamic kit (#62AM4PEC) with dilution of 20× of D2 and Eu in lysis buffer, mixed 1:1 by volume, and added 15 ul/well into plate, with a quick spin. […] The plate was then read on an Envision plate reader. Data were analyzed using the ratio of fluorescence intensity at 620 and 665 nm for each well.

## 2G10: fully human monoclonal anti-GIPR antagonist antibody portion of AMG 133 (maridebart cafraglutide); benchmark antibody [reference compound]
[1]
  body weight gain: reduced body weight gain
[2]
  cross-reactivity to additional species such as mouse GIPR: not cross-reactive
[3]
  IC50: 30.4 nM
